According to the supplement of paper PMC10567573:

B1: TRIM15 (parent)
chain: LSQMGAQSSGKILLCPLCQEEEQA
B2: FLOT1 (parent)
chain: QMAKKAEAFQLYQEAAQLDMLLEK

Variants of: B1
Experiment: protein stability index of a GFP-peptide fusion (GPS, HEK-293T) (PSI 1-6); higher = more stable
Details: c terminus: a fixed tail appended
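Also: lentivirally expressed fusions sorted by FACS into six bins by GFP to DsRed ratio, PSI derived from sequencing read proportions per bin multiplied by bin number.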

Variant	protein stability index
LSQMGAQSSGKILLCPLCQEEEAA [Q23A]	2.89
LSQMGAQSSGKILLCPLCQEEEHA [Q23H]	3.96
LSQMGAQSSGKILLCPLCQEEEVA [Q23V]	3.11
LSQMGAQSSGKILLCPLCQEEEDA [Q23D]	2.89
LSQMGAQSSGKILLCPLCQEEECA [Q23C]	3.58
LSQMGAQSSGKILLCPLCQEEEMA [Q23M]	3.31
LSQMGAQSSGKILLCPLCQEEELA [Q23L]	3.12
LSQMGAQSSGKILLCPLCQEEEEA [Q23E]	4.53
LSQMGAQSSGKILLCPLCQEEEYA [Q23Y]	3.09
LSQMGAQSSGKILLCPLCQEEETA [Q23T]	3.33
LSQMGAQSSGKILLCPLCQEEEGA [Q23G]	3.47
LSQMGAQSSGKILLCPLCQEEENA [Q23N]	3.67
LSQMGAQSSGKILLCPLCQEEEIA [Q23I]	3.2
LSQMGAQSSGKILLCPLCQEEEFA [Q23F]	2.96
LSQMGAQSSGKILLCPLCQEEEWA [Q23W]	3.56
LSQMGAQSSGKILLCPLCQEEEQM [A24M]	2.84
LSQMGAQSSGKILLCPLCQEEEQL [A24L]	2.63
LSQMGAQSSGKILLCPLCQEEEQS [A24S]	3.94
LSQMGAQSSGKILLCPLCQEEEQF [A24F]	2.55
LSQMGAQSSGKILLCPLCQEEEQY [A24Y]	3.55
LSQMGAQSSGKILLCPLCQEEEQI [A24I]	3.87
LSQMGAQSSGKILLCPLCQEEEQW [A24W]	2.44

Variant	protein stability index
LSQMGAQSSGKILLCPLCQEEEQG [A24G]	3.51
LSQMGAQSSGKILLCPLCQEEEQV [A24V]	3.28
LSQMGAQSSGKILLCPLCQEEEQK [A24K]	4.51
LSQMGAQSSGKILLCPLCQEEEQQ [A24Q]	4.37
LSQMGAQSSGKILLCPLCQEEEQT [A24T]	3.72
LSQMGAQSSGKILLCPLCQEEEQN [A24N]	3.88
LSQMGAQSSGKILLCPLCQEEEQE [A24E]	3.29
LSQMGAQSSGKILLCPLCQEEEQC [A24C]	3.14
LSQMGAQSSGKILLCPLCQEEEQD [A24D]	4.56
LSQMGAQSSGKILLCPLCQEEEQP [A24P]	3.45
LSQMGAQSSGKILLCPLCQEEEQH [A24H]	3.59
LSQMGAQSSGKILLCPLCQEEEQR [A24R]	2.99
LSQMGAQSSGKILLCPLCQAEEQA [E20A]	3.49
LSQMGAQSSGKILLCPLCQLEEQA [E20L]	2.82
LSQMGAQSSGKILLCPLCQPEEQA [E20P]	3.75
LSQMGAQSSGKILLCPLCQYEEQA [E20Y]	2.01
LSQMGAQSSGKILLCPLCQCEEQA [E20C]	2.44
LSQMGAQSSGKILLCPLCQVEEQA [E20V]	2.79
LSQMGAQSSGKILLCPLCQDEEQA [E20D]	4.27
LSQMGAQSSGKILLCPLCQFEEQA [E20F]	2.27
LSQMGAQSSGKILLCPLCQGEEQA [E20G]	2.81
LSQMGAQSSGKILLCPLCQSEEQA [E20S]	2.64

Variant	protein stability index
LSQMGAQSSGKILLCPLCQREEQA [E20R]	3.77
LSQMGAQSSGKILLCPLCQMEEQA [E20M]	2.73
LSQMGAQSSGKILLCPLCQKEEQA [E20K]	3.58
LSQMGAQSSGKILLCPLCQIEEQA [E20I]	2.79
LSQMGAQSSGKILLCPLCQTEEQA [E20T]	3.19
LSQMGAQSSGKILLCPLCQHEEQA [E20H]	2.65
LSQMGAQSSGKILLCPLCQEREQA [E21R]	2.48
LSQMGAQSSGKILLCPLCQEYEQA [E21Y]	2.82
LSQMGAQSSGKILLCPLCQEKEQA [E21K]	2.85
LSQMGAQSSGKILLCPLCQENEQA [E21N]	2.92
LSQMGAQSSGKILLCPLCQEHEQA [E21H]	3.31
LSQMGAQSSGKILLCPLCQEQEQA [E21Q]	2.91
LSQMGAQSSGKILLCPLCQETEQA [E21T]	3.36
LSQMGAQSSGKILLCPLCQEMEQA [E21M]	2.88
LSQMGAQSSGKILLCPLCQEDEQA [E21D]	3.36
LSQMGAQSSGKILLCPLCQEGEQA [E21G]	2.83
LSQMGAQSSGKILLCPLCQEPEQA [E21P]	3.36
LSQMGAQSSGKILLCPLCQEVEQA [E21V]	3.08
LSQMGAQSSGKILLCPLCQECEQA [E21C]	2.55
LSQMGAQSSGKILLCPLCQEWEQA [E21W]	2.89
LSQMGAQSSGKILLCPLCQEAEQA [E21A]	3.22
LSQMGAQSSGKILLCPLCQEIEQA [E21I]	2.26

Variant	protein stability index
LSQMGAQSSGKILLCPLCQEFEQA [E21F]	2.4
LSQMGAQSSGKILLCPLCQEENQA [E22N]	4.15
LSQMGAQSSGKILLCPLCQEECQA [E22C]	2.82
LSQMGAQSSGKILLCPLCQEEVQA [E22V]	4.13
LSQMGAQSSGKILLCPLCQEESQA [E22S]	2.89
LSQMGAQSSGKILLCPLCQEEKQA [E22K]	3.74
LSQMGAQSSGKILLCPLCQEEYQA [E22Y]	2.02
LSQMGAQSSGKILLCPLCQEEWQA [E22W]	2
LSQMGAQSSGKILLCPLCQEEGQA [E22G]	3.12
LSQMGAQSSGKILLCPLCQEELQA [E22L]	3.38
LSQMGAQSSGKILLCPLCQEEAQA [E22A]	4.08
LSQMGAQSSGKILLCPLCQEETQA [E22T]	3.46
LSQMGAQSSGKILLCPLCQEEHQA [E22H]	3.67
LSQMGAQSSGKILLCPLCQEEPQA [E22P]	2.56
LSQMGAQSSGKILLCPLCQEEDQA [E22D]	3.41
LSQMGAQSSGKILLCPLCQEEMQA [E22M]	2.56
LSQMGAQSSGKILLCPLCQEEQQA [E22Q]	3.2
LSQMGAQSSGKILLCPLCQEEIQA [E22I]	2.63
LSQMGAQSSGKILLCPLCQEEFQA [E22F]	2.6
LSQMGAQSSGKILLCPLCGEEEQA [Q19G]	3.98
LSQMGAQSSGKILLCPLCNEEEQA [Q19N]	3.57
LSQMGAQSSGKILLCPLCAEEEQA [Q19A]	4.35

Variant	protein stability index
LSQMGAQSSGKILLCPLCYEEEQA [Q19Y]	3.73
LSQMGAQSSGKILLCPLCEEEEQA [Q19E]	4.01
LSQMGAQSSGKILLCPLCREEEQA [Q19R]	3.54
LSQMGAQSSGKILLCPLCHEEEQA [Q19H]	3.24
LSQMGAQSSGKILLCPLCFEEEQA [Q19F]	3.62
LSQMGAQSSGKILLCPLCPEEEQA [Q19P]	4.42
LSQMGAQSSGKILLCPLCLEEEQA [Q19L]	2.62
LSQMGAQSSGKILLCPLCWEEEQA [Q19W]	2.78
LSQMGAQSSGKILLCPLCIEEEQA [Q19I]	3.18
LSQMGAQSSGKILLCPLCMEEEQA [Q19M]	3.19
LSQMGAQSSGKILLCPLCDEEEQA [Q19D]	4.16
LSQMGAQSSGKILLCPLCKEEEQA [Q19K]	3.46
LSQMGAQSSGKILLCPLCCEEEQA [Q19C]	2.52
LSQMGAQSSGKILLCPLCVEEEQA [Q19V]	4.04
LSQMGAQSSGKILLCPLCTEEEQA [Q19T]	3.83
LSQMGAQSSGKILLCPLCSEEEQA [Q19S]	3.23
LSQMGAQSSGKILLCPLRQEEEQA [C18R]	4.21
LSQMGAQSSGKILLCPLKQEEEQA [C18K]	4.27
LSQMGAQSSGKILLCPLPQEEEQA [C18P]	3.47
LSQMGAQSSGKILLCPLYQEEEQA [C18Y]	4.27
LSQMGAQSSGKILLCPLSQEEEQA [C18S]	4.92
LSQMGAQSSGKILLCPLDQEEEQA [C18D]	5.2

Variant	protein stability index
LSQMGAQSSGKILLCPLIQEEEQA [C18I]	3.49
LSQMGAQSSGKILLCPLAQEEEQA [C18A]	5.26
LSQMGAQSSGKILLCPLTQEEEQA [C18T]	4.86
LSQMGAQSSGKILLCPLVQEEEQA [C18V]	4.76
LSQMGAQSSGKILLCPLWQEEEQA [C18W]	4.59
LSQMGAQSSGKILLCPLQQEEEQA [C18Q]	5.56
LSQMGAQSSGKILLCPLMQEEEQA [C18M]	4.61
LSQMGAQSSGKILLCPLLQEEEQA [C18L]	4.82
LSQMGAQSSGKILLCPLHQEEEQA [C18H]	4.7
LSQMGAQSSGKILLCPLEQEEEQA [C18E]	5.13
LSQMGAQSSGKILLCPLFQEEEQA [C18F]	3.81
LSQMGAQSSGKILLCPLNQEEEQA [C18N]	4.38
LSQMGAQSSGKILLCPTCQEEEQA [L17T]	4.3
LSQMGAQSSGKILLCPYCQEEEQA [L17Y]	3.34
LSQMGAQSSGKILLCPMCQEEEQA [L17M]	3.19
LSQMGAQSSGKILLCPQCQEEEQA [L17Q]	4.19
LSQMGAQSSGKILLCPRCQEEEQA [L17R]	4.31
LSQMGAQSSGKILLCPPCQEEEQA [L17P]	5.04
LSQMGAQSSGKILLCPWCQEEEQA [L17W]	3.57
LSQMGAQSSGKILLCPVCQEEEQA [L17V]	3.79
LSQMGAQSSGKILLCPNCQEEEQA [L17N]	4.43
LSQMGAQSSGKILLCPSCQEEEQA [L17S]	4.24

Variants of: B2
Experiment: as above
Details: c terminus: a fixed tail appended

Variant	protein stability index
LMAKKAEAFQLYQEAAQLDMLLEK [Q1L]	2.5
YMAKKAEAFQLYQEAAQLDMLLEK [Q1Y]	2.96
HMAKKAEAFQLYQEAAQLDMLLEK [Q1H]	2.21
SMAKKAEAFQLYQEAAQLDMLLEK [Q1S]	3.78
VMAKKAEAFQLYQEAAQLDMLLEK [Q1V]	2.23
DMAKKAEAFQLYQEAAQLDMLLEK [Q1D]	1.9
PMAKKAEAFQLYQEAAQLDMLLEK [Q1P]	2.05
IMAKKAEAFQLYQEAAQLDMLLEK [Q1I]	2.83
RMAKKAEAFQLYQEAAQLDMLLEK [Q1R]	1.69
EMAKKAEAFQLYQEAAQLDMLLEK [Q1E]	2.19
TMAKKAEAFQLYQEAAQLDMLLEK [Q1T]	2.27
AMAKKAEAFQLYQEAAQLDMLLEK [Q1A]	2.01
NMAKKAEAFQLYQEAAQLDMLLEK [Q1N]	1.8
QMAAKAEAFQLYQEAAQLDMLLEK [K4A]	1.43
QMAEKAEAFQLYQEAAQLDMLLEK [K4E]	2.56
QMANKAEAFQLYQEAAQLDMLLEK [K4N]	2.38
QMACKAEAFQLYQEAAQLDMLLEK [K4C]	1.86
QMAMKAEAFQLYQEAAQLDMLLEK [K4M]	1.55
QMAHKAEAFQLYQEAAQLDMLLEK [K4H]	2.12

Variant	protein stability index
QMATKAEAFQLYQEAAQLDMLLEK [K4T]	1.15
QMAFKAEAFQLYQEAAQLDMLLEK [K4F]	1.68
QMADKAEAFQLYQEAAQLDMLLEK [K4D]	2.94
QMAPKAEAFQLYQEAAQLDMLLEK [K4P]	2.3
QMAIKAEAFQLYQEAAQLDMLLEK [K4I]	2.27
QMAQKAEAFQLYQEAAQLDMLLEK [K4Q]	1.51
QMAGKAEAFQLYQEAAQLDMLLEK [K4G]	2.15
QMQKKAEAFQLYQEAAQLDMLLEK [A3Q]	1.93
QMYKKAEAFQLYQEAAQLDMLLEK [A3Y]	2.83
QMTKKAEAFQLYQEAAQLDMLLEK [A3T]	1.16
QMVKKAEAFQLYQEAAQLDMLLEK [A3V]	1.29
QMIKKAEAFQLYQEAAQLDMLLEK [A3I]	1.88
QMFKKAEAFQLYQEAAQLDMLLEK [A3F]	1.16
QMMKKAEAFQLYQEAAQLDMLLEK [A3M]	2.44
QMNKKAEAFQLYQEAAQLDMLLEK [A3N]	3.51
QMLKKAEAFQLYQEAAQLDMLLEK [A3L]	2.63
QMPKKAEAFQLYQEAAQLDMLLEK [A3P]	1.63
QMHKKAEAFQLYQEAAQLDMLLEK [A3H]	1.93
QMWKKAEAFQLYQEAAQLDMLLEK [A3W]	1.21

Variant	protein stability index
QMCKKAEAFQLYQEAAQLDMLLEK [A3C]	2.81
QVAKKAEAFQLYQEAAQLDMLLEK [M2V]	1.22
QQAKKAEAFQLYQEAAQLDMLLEK [M2Q]	2.01
QHAKKAEAFQLYQEAAQLDMLLEK [M2H]	1.57
QGAKKAEAFQLYQEAAQLDMLLEK [M2G]	2.78
QAAKKAEAFQLYQEAAQLDMLLEK [M2A]	1.46
QEAKKAEAFQLYQEAAQLDMLLEK [M2E]	2.07
QPAKKAEAFQLYQEAAQLDMLLEK [M2P]	1.46
QLAKKAEAFQLYQEAAQLDMLLEK [M2L]	1.84
QCAKKAEAFQLYQEAAQLDMLLEK [M2C]	1.61
QYAKKAEAFQLYQEAAQLDMLLEK [M2Y]	2.1
QDAKKAEAFQLYQEAAQLDMLLEK [M2D]	2.45
QNAKKAEAFQLYQEAAQLDMLLEK [M2N]	1.92
QIAKKAEAFQLYQEAAQLDMLLEK [M2I]	1.36
QFAKKAEAFQLYQEAAQLDMLLEK [M2F]	1.78
QTAKKAEAFQLYQEAAQLDMLLEK [M2T]	1.76
QSAKKAEAFQLYQEAAQLDMLLEK [M2S]	1.14
QKAKKAEAFQLYQEAAQLDMLLEK [M2K]	2.4
